Consider 25 molecules from patent publication US20200317779A1 (GREEN CROSS, published 2020).

First the molecules themselves.
B1: H16 (antibody, human IgG1, lambda, L234A L235A, V domains shown)
VH: EVQLVESGGGLVQPGGSLKLSCAASGFTFNTYAMNWVRQASGKGLEWVARIRSKYNNYATYYADSVKDRFTISRDDSQSTLYLQMNSLKTEDTAVYYCVRHGNFGNSYVSWFAYWGQGTLVTVSS
VL: QAVVTQEPSLTVSPGGTVTLTCRSSTGAVTTSNYANWVQQKPGQAPRGLIGGTNKRAPWTPARFSGSLLGDKAALTLSGAQPEDEAEYYCALWYSNLWVFGGGTKLTVLG
notes: humanized SP34 IgG1, lambda
B2: D15 (antibody, human IgG1, lambda, L234A L235A, V domains shown)
VH: B1 VH with A49G
VL: B1 VL with D71G
notes: humanized SP34 IgG1, lambda
B3: A16 (antibody, human IgG1, lambda, L234A L235A, V domains shown)
VH: B1 VH with A49G, Q78K, S79N, L81A
VL: B1 VL
notes: humanized SP34 IgG1, lambda
B4: H15 (antibody, human IgG1, lambda, L234A L235A, V domains shown)
VH: B1 VH
VL: B1 VL with D71G
notes: humanized SP34 IgG1, lambda
B5: E15 (antibody, human IgG1, lambda, L234A L235A, V domains shown)
VH: B1 VH with Q78K, S79N, L81A
VL: B1 VL with D71G
notes: humanized SP34 IgG1, lambda
B6: A07 (antibody, human IgG1, lambda, L234A L235A, V domains shown)
VH: B1 VH with A49G, Q78K, S79N, L81A
VL: B1 VL with V38F, D71G
notes: humanized SP34 IgG1, lambda; also called A7
B7: B08 (antibody, human IgG1, lambda, L234A L235A, V domains shown)
VH: B1 VH with A49G, Q78K, S79N
VL: B1 VL with V38F
notes: humanized SP34 IgG1, lambda; also called B8
B8: A15 (antibody, human IgG1, lambda, L234A L235A, V domains shown)
VH: B1 VH with A49G, Q78K, S79N, L81A
VL: B1 VL with D71G
notes: humanized SP34 IgG1, lambda
B9: B15 (antibody, human IgG1, lambda, L234A L235A, V domains shown)
VH: B1 VH with A49G, Q78K, S79N
VL: B1 VL with D71G
notes: humanized SP34 IgG1, lambda
B10: B16 (antibody, human IgG1, lambda, L234A L235A, V domains shown)
VH: B1 VH with A49G, Q78K, S79N
VL: B1 VL
notes: humanized SP34 IgG1, lambda
B11: C08 (antibody, human IgG1, lambda, L234A L235A, V domains shown)
VH: B1 VH with A49G, L81A
VL: B1 VL with V38F
notes: humanized SP34 IgG1, lambda; also called C8
B12: C07 (antibody, human IgG1, lambda, L234A L235A, V domains shown)
VH: B1 VH with A49G, L81A
VL: B1 VL with V38F, D71G
notes: humanized SP34 IgG1, lambda; also called C7
B13: G15 (antibody, human IgG1, lambda, L234A L235A, V domains shown)
VH: B1 VH with L81A
VL: B1 VL with D71G
notes: humanized SP34 IgG1, lambda
B14: D16 (antibody, human IgG1, lambda, L234A L235A, V domains shown)
VH: B1 VH with A49G
VL: B1 VL
notes: humanized SP34 IgG1, lambda
B15: B07 (antibody, human IgG1, lambda, L234A L235A, V domains shown)
VH: B1 VH with A49G, Q78K, S79N
VL: B1 VL with V38F, D71G
notes: humanized SP34 IgG1, lambda; also called B7
B16: E16 (antibody, human IgG1, lambda, L234A L235A, V domains shown)
VH: B1 VH with Q78K, S79N, L81A
VL: B1 VL
notes: humanized SP34 IgG1, lambda
B17: A08 (antibody, human IgG1, lambda, L234A L235A, V domains shown)
VH: B1 VH with A49G, Q78K, S79N, L81A
VL: B1 VL with V38F
notes: humanized SP34 IgG1, lambda; also called A8
B18: Mouse human chimeric SP34 IgG1 antibody (antibody, V domains shown)
VH: B1 VH with G15K, S41P, T80I, S87N, V95M
VL: QAVVTQESALTTSPGETVTLTCRSSTGAVTTSNYANWVQEKPDHLFTGLIGGTNKRAPGVPARFSGSLIGDKAALTITGAQTEDEAIYFCALWYSNLWVFGGGTKLTVLG
B19: D08 (antibody, human IgG1, lambda, L234A L235A, V domains shown)
VH: B1 VH with A49G
VL: B1 VL with V38F
notes: humanized SP34 IgG1, lambda; also called D8
B20: F15 (antibody, human IgG1, lambda, L234A L235A, V domains shown)
VH: B1 VH with Q78K, S79N
VL: B1 VL with D71G
notes: humanized SP34 IgG1, lambda
B21: D07 (antibody, human IgG1, lambda, L234A L235A, V domains shown)
VH: B1 VH with A49G
VL: B1 VL with V38F, D71G
notes: humanized SP34 IgG1, lambda; also called D7
B22: C15 (antibody, human IgG1, lambda, L234A L235A, V domains shown)
VH: B1 VH with A49G, L81A
VL: B1 VL with D71G
notes: humanized SP34 IgG1, lambda
B23: F16 (antibody, human IgG1, lambda, L234A L235A, V domains shown)
VH: B1 VH with Q78K, S79N
VL: B1 VL
notes: humanized SP34 IgG1, lambda
B24: C16 (antibody, human IgG1, lambda, L234A L235A, V domains shown)
VH: B1 VH with A49G, L81A
VL: B1 VL
notes: humanized SP34 IgG1, lambda
B25: G16 (antibody, human IgG1, lambda, L234A L235A, V domains shown)
VH: B1 VH with L81A
VL: B1 VL
notes: humanized SP34 IgG1, lambda

Positions count from the first letter of the chain named.

T2 sequence (P07766 23-207, chain 1 of 3): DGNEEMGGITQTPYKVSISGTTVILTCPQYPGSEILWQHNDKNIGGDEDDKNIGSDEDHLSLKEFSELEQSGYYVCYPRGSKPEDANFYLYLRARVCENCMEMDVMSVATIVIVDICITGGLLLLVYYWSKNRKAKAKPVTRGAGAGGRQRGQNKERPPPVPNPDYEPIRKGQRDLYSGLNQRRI
T2 sequence (P04234 22-171, chain 2 of 3, further chain): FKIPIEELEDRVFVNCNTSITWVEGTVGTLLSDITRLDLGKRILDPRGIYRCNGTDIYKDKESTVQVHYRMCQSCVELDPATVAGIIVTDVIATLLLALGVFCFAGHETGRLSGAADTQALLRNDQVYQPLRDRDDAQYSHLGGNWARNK
T2 sequence (P09693 23-182, chain 3 of 3, further chain): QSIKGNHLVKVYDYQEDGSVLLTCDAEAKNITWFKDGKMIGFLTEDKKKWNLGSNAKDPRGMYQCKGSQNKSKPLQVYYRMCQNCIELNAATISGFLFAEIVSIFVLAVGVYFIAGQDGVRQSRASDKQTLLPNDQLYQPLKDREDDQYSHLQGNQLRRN

In the first assay the target is T1, CD3 on monkey T cells (monkey splenocytes) (monkey).
T1 construct: whole, on cells; The target is printed as 'monkey T cells'
Description: flow cytometry on monkey splenocytes, 1 µg antibody per 10^6 cells in 100 µl, PE anti-human IgG detection. As for the experimental part: Specifically, monkey splenocytes were prepared at 10⁶ cells in 100 μl FACS solution per antibody sample, and then 1 μg of antibody was used to treat the cells. The resultant was stored for 25 minutes in the dark at 4° C. Subsequently, treatment with 3 ml of FACS buffer was performed, and centrifugation was performed at 2,000 rpm for 3 minutes. Then, the supernatant was discarded.
Next, 100 μl FACS buffer containing 1 μg of PE-conjugated human IgG antibody was used to treat the cells, and the resultant was stored for 25 minutes in the dark at 4° C. Subsequently, treatment with 3 ml of FACS buffer was performed, and centrifugation was performed at 2,000 rpm for 3 minutes. Then, the supernatant was discarded.
The cells were treated with a 4% formaldehyde solution, stored in the dark at 4° C. for 30 minutes, and then treated with 3 ml of FACS buffer. Centrifugation was performed at 2,000 rpm for 3 minutes, and then the supernatant was discarded. Treatment with 350 μl of FACS buffer was performed, and a flow cytometer was used to perform affinity analysis of the antibodies for the […]. The analysis results are illustrated in FIG. 2.
A general note: A flow cytometer gives signals particle by particle.
Turning to B1, the “Mean : Comp-PE-A” value was 13400.
Take B2: the “Mean : Comp-PE-A” value worked out at 18600.
The same measure, in the same setting: the figure for B3 is 17600; for B4 it is 16700.
Still for that read-out and setting: the value for B5 was 13500; that for B6 was 6680; that for B7 was 4590.
Still for that read-out and setting: the figure for B8 is 15800; for B9 it is 16300.
On to B10, for which the “Mean : Comp-PE-A” value came out at 17200.
On the same count and under the same terms, the figure for B11 is 5670; for B12 it is 5380; for B13 it is 17300.
For the molecule B14, the “Mean : Comp-PE-A” value was determined as 18600.
The same measure, in the same setting: the figure for B15 is 4790; for B16 it is 13900.
On the same count and under the same terms, the value for B17 was 5530; that for B18 was 19800; that for B19 was 5120.
The same measure, in the same setting: the figure for B20 is 14700.
Regarding B21, the “Mean : Comp-PE-A” value turned out to be 6760.
In the case of B22, the “Mean : Comp-PE-A” value is 17800.
For the molecule B23, the “Mean : Comp-PE-A” value came to 11900.
The same measure, in the same setting: the figure for B24 is 12100; for B25 it is 14000.

Another assay addresses T2, CD3 on human T cells (H9 cells, ATCC HTB-176) (human).
T2 construct: whole, on cells; The target is printed as 'human T cells'
Description: flow cytometry on H9 cells, 1 µg antibody per 2x10^5 cells in 100 µl, PE anti-human IgG detection. As for the experimental part:
The resultant was stored for 25 minutes in the dark at 4° C. Subsequently, treatment with 3 ml of FACS buffer was performed, and centrifugation was performed at 2,000 rpm for 3 minutes. Then, the supernatant was discarded.
Next, 100 μl FACS buffer containing 1 μg of phycoerythrin (PE)-conjugated human IgG antibody was used to treat the cells, and the resultant was stored for 25 minutes in the dark at 4° C. Subsequently, treatment with 3 ml of FACS buffer was performed, and centrifugation was performed at 2,000 rpm for 3 minutes. Then, the supernatant was discarded.
The cells were treated with a 4% formaldehyde solution, stored in the dark at 4° C. for 30 minutes, and then treated with 3 ml of FACS buffer. Centrifugation was performed at 2,000 rpm for 3 minutes, and then the supernatant was discarded. Treatment with 350 μl of FACS buffer was performed, and a flow cytometer was used to perform affinity analysis of the antibodies for the human T cells. The analysis results are illustrated in FIG. 1.
For the molecule B1, the “Mean : PE-A” value was 9350.
Same read-out and setting: the value for B2 was 22600; that for B3 was 16700; that for B4 was 9620.
Same read-out and setting: the figure for B5 is 12800; for B6 it is 4310.
The same measure, in the same setting: the figure for B7 is 3780; for B8 it is 24000.
Turning to B9, the “Mean : PE-A” value came to 22900.
Still for that read-out and setting: the value for B10 was 16800; that for B11 was 4680.
The same measure, in the same setting: the value for B12 was 4620; that for B13 was 11600.
As to B14, the “Mean : PE-A” value worked out at 18300.
Consider B15, for which the “Mean : PE-A” value worked out at 4810.
As for B16, the “Mean : PE-A” value was determined as 11100.
As for B17, the “Mean : PE-A” value worked out at 3080.
On the same count and under the same terms, the figure for B19 is 4220; for B20 it is 11200; for B21 it is 3770.
Same read-out and setting: the figure for B22 is 23100; for B23 it is 9530.
Turning to B24, the “Mean : PE-A” value is 17700.
Same read-out and setting: the figure for B25 is 10300.
